doi:10.1101/2024.11.27.625625 (bioRxiv, 2024)

B1: TolQ (natural protein, E. coli)
chain: MTDMNILDLFLKASLLVKLIMLILIGFSIASWAIIIQRTRILNAAAREAEAFEDKFWSGIELSRLYQESQGKRDNLTGSEQIFYSGFKEFVRLHRANSHAPEAVVEGASRAMRISMNRELENLETHIPFLGTVGSISPYIGLFGTVWGIMHAFIALGAVKQATLQMVAPGIAEALIATAIGLFAAIPAVMAYNRLNQRVNKLELNYDNFMEEFTAILHRQAFTVSESNKG
B2: TolA (natural protein, E. coli, UniProt P19934 1-421, looked up)
chain: MSKATEQNDKLKRAIIISAVLHVILFAALIWSSFDENIEASAGGGGGSSIDAVMVDSGAVVEQYKRMQSQESSAKRSDEQRKMKEQQAAEELREKQAAEQERLKQLEKERLAAQEQKKQAEEAAKQAELKQKQAEEAAAKAAADAKAKAEADAKAAEEAAKKAAADAKKKAEAEAAKAAAEAQKKAEAAAAALKKKAEAAEAAAAEARKKAATEAAEKAKAEAEKKAAAEKAAADKKAAAEKAAADKKAAEKAAAEKAAADKKAAAEKAAADKKAAAAKAAAEKAAAAKAAAEADDIFGELSSGKNAPKTGGGAKGNNASPAGSGNTKNNGASGADINNYAGQIKSAIESKFYDASSYAGKTCTLRIKLAPDGMLLDIKPEGGDPALCQAALAAAKLAKIPKPPSQAVYEVFKNAPLDFKP

Columns and labels:
cryo-EM structure = biological target: the molecule itself; test: cryo-EM structure
TolQ = biological target: B1; test: co-purification
[1] = biological target: T1, TolR with an octahistidine-tag at the C-terminus (E. coli, UniProt P0ABV6 1-142); test: co-purification
T1 sequence: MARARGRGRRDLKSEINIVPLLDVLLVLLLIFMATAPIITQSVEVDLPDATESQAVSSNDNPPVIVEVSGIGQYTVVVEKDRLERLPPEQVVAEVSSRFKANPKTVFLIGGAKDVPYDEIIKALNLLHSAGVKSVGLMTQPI

Binder	stoichiometry N (cryo-EM structure)	stoichiometry N (TolQ) [TolQ per TolA]	stoichiometry N [1] [TolR per TolA]
B1	5	–	–
B2	–	~4.5	~1.5
